{"source": "IntAct's records for PubMed 21900546", "parents": {"B1": {"name": "Neutrophil cytosol factor 2 (Homo sapiens), P19878 (parent)", "chain": "MSLVEAISLWNEGVLAADKKDWKGALDAFSAVQDPHSRICFNIGCMYTILKNMTEAEKAFTRSINRDKHLAVAYFQRGMLYYQTEKYDLAIKDLKEALIQLRGNQLIDYKILGLQFKLFACEVLYNIAFMYAKKEEWKKAEEQLALATSMKSEPRHSKIDKAMECVWKQKLYEPVVIPVGKLFRPNERQVAQLAKKDYLGKATVVASVVDQDSFSGFAPLQPQAAEPPPRPKTPEIFRALEGEAHRVLFGFVPETKEELQVMPGNIVFVLKKGNDNWATVMFNGQKGLVPCNYLEPVELRIHPQQQPQEESSPQSDIPAPPSSKAPGRPQLSPGQKQKEEPKEVKLSVPMPYTLKVHYKYTVVMKTQPGLPYSQVRDMVSKKLELRLEHTKLSYRPRDSNELVPLSEDSMKDAWGQVKNYCLTLWCENTVGDQGFPDEPKESEKADANNQTTEPQLKKGSQVEALFSYEATQPEDLEFQEGDIILVLSKVNEEWLEGECKGKVGIFPKVFVEDCATTDLESTRREV"}}}
{"variants_of": "B1", "conditions": "with rac2_human RAC2, P15153"}
{"variant": "MSLVEAISLWNEGVLAADKKDWKGALDAFSAVQDPHSQICFNIGCMYTILKNMTEAEKAFTRSINRDKHLAVAYFQRGMLYYQTEKYDLAIKDLKEALIQLRGNQLIDYKILGLQFKLFACEVLYNIAFMYAKKEEWKKAEEQLALATSMKSEPRHSKIDKAMECVWKQKLYEPVVIPVGKLFRPNERQVAQLAKKDYLGKATVVASVVDQDSFSGFAPLQPQAAEPPPRPKTPEIFRALEGEAHRVLFGFVPETKEELQVMPGNIVFVLKKGNDNWATVMFNGQKGLVPCNYLEPVELRIHPQQQPQEESSPQSDIPAPPSSKAPGRPQLSPGQKQKEEPKEVKLSVPMPYTLKVHYKYTVVMKTQPGLPYSQVRDMVSKKLELRLEHTKLSYRPRDSNELVPLSEDSMKDAWGQVKNYCLTLWCENTVGDQGFPDEPKESEKADANNQTTEPQLKKGSQVEALFSYEATQPEDLEFQEGDIILVLSKVNEEWLEGECKGKVGIFPKVFVEDCATTDLESTRREV", "note": "[R38Q]", "effect of a mutation on the interaction": "decreasing interaction strength"}
